Test results reported in US8906844B2 (SYNTONIX PHARMACEUTICALS, dated 2014).
Read-outs that look alike come from different tables or passages of the source. Starred links: 1 amine or outer side, 2 acyl side, 3 side chain; linkers in the order of their positions; H or OH if unused. Positions of bridges follow the written chain, without caps; N, C: chain ends. Non-standard residues stand in square brackets, D forms with d. No end group written: not given here. X1 = 3(R)‑3‑amino‑2‑oxo‑1‑piperidine‑acetic acid, O=C1[C@H](N[*:1])CCCN1CC(=O)[*:2]; NMeL = CN[C@@H](CC(C)C)C(=O)O; Pen = CC(C)(S)[C@H](N)C(=O)O; NMeA = CN[C@@H](C)C(=O)O; βAla = NCCC(=O)O

Legend:
[1] = molecular target: T1, soluble human FcRn (Homo sapiens, UniProt P55899); test: Equilibrium binding constants (KD) by surface plasmon resonance (Biacore); conditions: pH 6
T1 construct: made in house; host or cells: Chinese hamster ovary (CHO) cells, glutamine synthetase expression system
Experimental: (§1) The following steps were performed to cross-link soluble human or cynomolgus FcRn to the dextran surface of a CM5 sensor chip (Biacore AB, Uppsala, Sweden) by an amine coupling reaction involving 1-ethyl-(3-dimethylaminopropyl)-carbodiimide hydrochloride (EDC) (Biacore AB, Uppsala, Sweden) and N-hydroxysuccinimide (NHS) (Biacore AB, Uppsala, Sweden) as recommended by Biacore (BIAapplications Handbook, version AB, section 4.2, Biacore AB, Uppsala, Sweden). The FcRn protein was diluted in 50 mM sodium acetate, pH 4.5 (Biacore AB, Uppsala, Sweden) to a concentration of 10 to 30 μg/ml and used to coat one flow cell on the sensor chip. Residual sites on the FcRn flow cell were blocked with 1 M ethanolamine hydrochloride pH 8.5 (Biacore AB, Uppsala, Sweden). A control flow cell was blocked with ethanolamine for reference subtraction. For analysis of the monomeric peptides, FcRn was coated to a final density of 4000-5000 response units (RU). For analysis of the peptide dimers, FcRn was coated to a density of 2000-2500 RU. […]
(§2) Ten 2-fold dilutions of the peptide were injected over the FcRn-CM5 chip at a rate of 20 μl/min for 2 min. […] Sensorgrams were generated and analyzed using BiaEval software version 3.1 (Biacore AB, Uppsala, Sweden). […]
Sensorgrams were generated and analyzed using BiaEval software version 3.1 (Biacore AB, Uppsala, Sweden). […]

[2] = molecular target: T2, soluble human FcRn (shFcRn) (Homo sapiens, UniProt P55899); assay type: binding; conditions: IgG competition ELISA, 3 nM human IgG, buffer pH 6
T2 construct: made in house; host or cells: Chinese hamster ovary (CHO) cells, glutamine synthetase expression system
Experimental: A solution of soluble human FcRn (shFcRn) in Tris buffer was dialyzed twice, each time for 3 hours in 2 liters of PBS, pH 8.0. The quantity of recovered shFcRn was determined by measuring the absorbance at 280 nm. […] Biotinylation of shFcRn was accomplished by treating the dialyzed shFcRn with a 2-fold-molar excess of Sulfo-NHS-LC-Biotin (Invitrogen, Carlsbad, Calif.) for 2 hours at 4° C. Afterwards, the shFcRn-Sulfo-NHS-LC-Biotin reaction mixture was dialyzed twice in 2 L of cold PBS, followed by another absorbance reading to determine the concentration of the remaining protein. The biotinylated shFcRn was stored at 4° C. with 0.1% sodium azide until needed.
The wells were coated with 100 μl/well of 1 μg/ml biotinylated-shFcRn in Buffer A. The plate was sealed and incubated at 37° C. for 2 hours. Afterwards, the plate was washed with 200 μl/well of Buffer B (Buffer B: 100 mM MES pH 6, 150 mM NaCl, 0.5% BSA IgG-free (Jackson ImmunoResearch, West Grove, Pa.), 0.05% Tween-20). Then, 50 μl/well of 6 nM human IgG (Calbiochem, San Diego, Calif.) in Buffer B as well as 50 μl/well of the various peptide competitors (at various concentration) were added, so that the final concentration of IgG in the well was 3 nM. […] Once color developed, 100 μl/well of TMB stop solution (KPL, Gaithersburg, Md.) was added and the absorbance was measured at 450 nm.

[3] = molecular target: T3, soluble human FcRn (shFcRn) (human, UniProt P55899 24-297; P61769 21-119, biotinylated with Sulfo-NHS-LC-Biotin in the ELISA; amine-coupled to a CM5 chip in SPR); test: competition ELISA vs human IgG
T3 construct: also called biotinylated shFcRn
Experimental: (§3) The wells were coated with 100 μl/well of 1 μg/ml biotinylated-shFcRn in Buffer A. The plate was sealed and incubated at 37° C. for 2 hours. Afterwards, the plate was washed with 200 μl/well of Buffer B (Buffer B: 100 mM MES pH 6, 150 mM NaCl, 0.5% BSA IgG-free (Jackson ImmunoResearch, West Grove, Pa.), 0.05% Tween-20). […] To allow for mixing, the plate was rocked for 2 minutes, sealed and incubated at 37° C. for 2 hours. […] The plate was covered, incubated for 30 minutes at room temperature and washed 4 times with 200 μl/well of ice-cold buffer B. SureBlue TMB substrate solution (100 μl/well, KPL, Gaithersburg, Md.) was added and the plate was allowed to incubate at room temperature until color developed, which took 5 to 10 minutes. Once color developed, 100 μl/well of TMB stop solution (KPL, Gaithersburg, Md.) was added and the absorbance was measured at 450 nm.

[4] = molecular target: T3, soluble human FcRn (shFcRn); test: SPR, pH 6
Experimental: (§4) The following steps were performed to cross-link soluble human or cynomolgus FcRn to the dextran surface of a CM5 sensor chip (Biacore AB, Uppsala, Sweden) by an amine coupling reaction involving 1-ethyl-(3-dimethylaminopropyl)-carbodiimide hydrochloride (EDC) (Biacore AB, Uppsala, Sweden) and N-hydroxysuccinimide (NHS) (Biacore AB, Uppsala, Sweden) as recommended by Biacore (BIAapplications Handbook, version AB, section 4.2, Biacore AB, Uppsala, Sweden). The FcRn protein was diluted in 50 mM sodium acetate, pH 4.5 (Biacore AB, Uppsala, Sweden) to a concentration of 10 to 30 µg/ml and used to coat one flow cell on the sensor chip. Residual sites on the FcRn flow cell were blocked with 1 M ethanolamine hydrochloride pH 8.5 (Biacore AB, Uppsala, Sweden). A control flow cell was blocked with ethanolamine for reference subtraction. For analysis of the monomeric peptides, FcRn was coated to a final density of 4000-5000 response units (RU). For analysis of the peptide dimers, FcRn was coated to a density of 2000-2500 RU. All SPR measurements were performed using a BIACORE 3000 Instrument (Biacore AB Uppsala, Sweden). For measurements done at either pH 6 or pH 7.4, experiments were performed in 50 mM phosphate, 100 mM sodium chloride, 0.01% surfactant P20 (Biacore AB, Uppsala, Sweden).
(§5) A. Representative Procedure for the Determination of Binding Constant of Monomeric Peptides Ten 2-fold dilutions of the peptide were injected over the FcRn-CM5 chip at a rate of 20 µl/min for 2 min. The peptide was dissociated from the chip for 2.5 minutes with buffer. Any remaining peptide was removed from the chip with a 30 second injection of HBS-P buffer (Biacore AB, Uppsala, Sweden) at a rate of 30 µl/min. Sensorgrams were generated and analyzed using BiaEval software version 3.1 (Biacore AB, Uppsala, Sweden). The equilibrium RU observed for each injection was plotted against concentration. The equilibrium K_D values were derived by analysis of the plots using the steady state affinity model included in the BiaEval software.

[5] = molecular target: T3, soluble human FcRn (shFcRn); test: SPR, pH 6; small-letter c (D-cysteine) at first Cys position, no Pen
Experimental: as §1, with “µg/ml” for “μg/ml”
as §2, with “A. Representative Procedure for the Determination of Binding Constant of Monomeric Peptides Ten” for “Ten”, “µl/min” for “μl/min”

[6] = molecular target: T3, soluble human FcRn (shFcRn); test: SPR, pH 6; Tyr replaced by NMeTyr (N-methyl scan)
Experimental: as §1, with “µg/ml” for “μg/ml”
as §2, with “A. Representative Procedure for the Determination of Binding Constant of Monomeric Peptides Ten” for “Ten”, “µl/min” for “μl/min”

[7] = molecular target: T3, soluble human FcRn (shFcRn); test: SPR, pH 6; small-letter c (D-cysteine) at both Cys positions
Experimental: as §1, with “µg/ml” for “μg/ml”
as §2, with “A. Representative Procedure for the Determination of Binding Constant of Monomeric Peptides Ten” for “Ten”, “µl/min” for “μl/min”

[8] = molecular target: T3, soluble human FcRn (shFcRn); test: competition ELISA vs human IgG; remark: listed apart in the source
Experimental: as §3

[9] = molecular target: T3, soluble human FcRn (shFcRn); test: SPR, pH 6; remark: listed apart in the source
Experimental: as §4, §5

[10] = molecular target: T3, soluble human FcRn (shFcRn); test: SPR, pH 7.4
Experimental: as §4, §5

[11] = molecular target: T3, soluble human FcRn (shFcRn); test: SPR, pH 7.4; remark: listed apart in the source
Experimental: as §1, with “µg/ml” for “μg/ml”
as §2, with “A. Representative Procedure for the Determination of Binding Constant of Monomeric Peptides Ten” for “Ten”, “µl/min” for “μl/min”

[12] = molecular target: T3, soluble human FcRn (shFcRn); test: competition ELISA vs human IgG; remark: listed apart in the source
Experimental: as §3

[13] = molecular target: T3, soluble human FcRn (shFcRn); test: SPR, pH 7.4
[14] = molecular target: T3, soluble human FcRn (shFcRn); test: SPR, pH 6; remark: listed apart in the source
[15] = molecular target: T3, soluble human FcRn (shFcRn); test: competition ELISA vs human IgG; remark: listed apart in the source

T3 sequence (P55899 24-297 limits assumed, chain 1 of 2): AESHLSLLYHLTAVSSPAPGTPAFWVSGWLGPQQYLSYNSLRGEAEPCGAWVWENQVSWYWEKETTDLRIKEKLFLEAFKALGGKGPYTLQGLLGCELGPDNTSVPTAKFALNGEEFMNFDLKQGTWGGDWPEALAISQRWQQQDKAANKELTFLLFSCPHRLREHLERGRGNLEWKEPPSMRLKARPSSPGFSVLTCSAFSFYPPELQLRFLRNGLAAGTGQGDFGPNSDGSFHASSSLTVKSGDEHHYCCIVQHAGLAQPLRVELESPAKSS
T3 sequence (P61769 21-119 limits assumed, chain 2 of 2): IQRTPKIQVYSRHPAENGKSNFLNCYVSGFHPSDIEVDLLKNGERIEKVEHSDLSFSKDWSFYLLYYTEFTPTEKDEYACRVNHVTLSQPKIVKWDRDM
T2 sequence (P61769 21-119): as the sequence (P61769 21-119 limits assumed, chain 2 of 2) above
T2 sequence (P55899 24-297): as the sequence (P55899 24-297 limits assumed, chain 1 of 2) above
T1 sequence (P55899 24-297): as the sequence (P55899 24-297 limits assumed, chain 1 of 2) above
T1 sequence (P61769 21-119, further chain): as the sequence (P61769 21-119 limits assumed, chain 2 of 2) above

Molecule	IC50 [8]	Kd [9]	Kd [10]	other results
QRFCGHF[βAla]LYPCNGP (cysteine pairing not given here) [Peptide No. 25]	–	–	–	Kd [1]: > 250 µM; IC50 [2]: > 125 µM
QRFXTGHFXXXYPCNGP (Pen4; D-Ala9; Sar10; NMeLeu11; disulfide; C-terminal amide) [Peptide No. 188]	–	–	–	IC50 [3]: 6.5 µM; Kd [4]: 0.73 µM
QRFXTGHFGGLYPCNGP (D-Cys4; disulfide; C-terminal amide) [Peptide No. 29]	–	–	–	Kd [5]: 150 µM
QRFXTGHFGGLXPCNGP (Pen4; NMeTyr12; disulfide; C-terminal amide) [Peptide No. 114]	–	–	–	Kd [6]: 92 µM
QRFXTGHFGGLYPXNGP (D-Cys4; D-Cys14; disulfide; C-terminal amide) [Peptide No. 31]	> 500 µM	–	–	Kd [7]: 200 µM
QRFXTGHFGXXYPCNGP (Pen4; Sar10; NMeLeu11; disulfide; C-terminal amide) [Peptide No. 187]	0.42 µM	0.046 µM	0.23 µM	IC50 [3]: 0.42 µM; Kd [11]: 0.23 µM; Kd [4]: 0.046 µM
QRFVTGHFGXWYPANGP (D-Pro10; unbridged; C-terminal amide) [Peptide No. 177]	52 µM	5.8 µM	96 µM	–
QRFCTGHFXXLYPCNGP (D-Ala9; D-Ala10; disulfide; C-terminal amide) [Peptide No. 24]	69 µM	22 µM	> 250 µM	–
RFVTGHFGXXYPA (Sar9; NMeLeu10; unbridged; C-terminal amide) [Peptide No. 236]	37 µM	–	9 µM	IC50 [12]: 37 µM
RFXTGHFGXXYPC (Pen3; Sar9; NMeLeu10; disulfide; C-terminal amide) [Peptide No. 235]	0.49 µM	0.031 µM	0.17 µM	IC50 [3]: 0.49 µM; Kd [11]: 0.17 µM; Kd [4]: 0.031 µM
RFXTGFFGXXYPC (Pen3; Sar9; NMeLeu10; disulfide; C-terminal amide) [Peptide No. 265]	–	3.3 µM	–	Kd [13]: 4.2 µM
RFXTGKFGXXYPC (Pen3; Sar9; NMeLeu10; disulfide; C-terminal amide) [Peptide No. 255]	40 µM	1.3 µM	–	Kd [13]: 1.1 µM
RFXTGRFGXXYPC (Pen3; Sar9; NMeLeu10; disulfide; C-terminal amide) [Peptide No. 256]	5.5 µM	0.5 µM	–	Kd [13]: 0.5 µM
RF[Pen][NMeA]GHF[X1][NMeL]YPC-NH2 (disulfide 3-12 (inferred)) [Peptide No. 228]	–	–	–	Kd [14]: 0.145 µM; IC50 [15]: 1.1 µM
